{"source": "patent US8865222B2", "about": "“Beta-casein assemblies for enrichment of food and beverages and methods of preparation thereof” (Technion Research and Development Foundation Ltd., priority 2008, dated 2014)", "molecules": {"B1": {"name": "beta-casein: lyophilized bovine beta-casein (~24 kDa milk protein) self-assembled into nano-sized micelles at low or neutral pH (protein, UniProt P02666 16-224, looked up)", "Beta-casein": "RELEELNVPGEIVESLSSSEESITRINKKIEKFQSEEQQQTEDELQDKIHPFAQTQSLVYPFPGPIPNSLPQNIPPLTQTPVVVPPFLQPEVMGVSKVKEAMAPKHKEMPFPKYPVEPFTESQSLTLTDVENLHLPLPLLQSWMHQPHQPLPPTVMFPPQSVLSLSQSKVLPVPQKAVPYPQRDMPIQAFLLYQEPVLGPVRGPFPIIV"}}, "key": {"[1]": {"test": "Isothermal titration calorimetry (ITC) demicellization of beta-casein micellar solution", "format": "physicochemical", "protocol": "• Cryo-TEM: Specimens were prepared in the controlled environment vitrification system (CEVS) (Bellare et al. Electron Microsc. Technique, 1988, 10; 87-111) at 24° C. and 100% relative humidity to avoid loss of volatiles. First, the solutions were incubated in the CEVS at the desired temperature for 1 h. Then, a 7 μL drop of each solution was placed on a TEM copper grid covered with a perforated carbon film (Pelco International) and blotted with filter paper to form a thin liquid film of the sample (100-200 nm thick). The thinned sample was plunged into liquid ethane at its freezing temperature (−183° C.) to form a vitrified specimen and then transferred to liquid nitrogen ([…]) for storage. The vitrified specimens were examined in a Philips CM120 transmission electron microscope operating at an accelerating voltage of 120 kV. We used an Oxford CT3500 (Oxford Instruments) cryoholder that maintained the specimens below −175° C. during sample transfer and observation. Images were recorded digitally on a cooled Gatan MultiScan 791 CCD camera using DigitalMicrograph 3.1 software (Gatan) in the low-dose imaging mode to minimize beam exposure and electron-beam radiation damage. • ITC: ITC measurements were performed with a VP-ITC calorimeter (MicroCal) at a temperature of 24° C. The reaction cell (V=1.43 mL) was filled with degassed solvent (lactic acid at pH 2.6, or phosphate buffer at pH 7.0). The injector-stirrer syringe (289 μL) was loaded with a beta-casein micellar solution (20 mg/mL). The micellar solution was injected into the reaction cell in 28 steps of 10 μL aliquots each, and the heat flow was measured. During the titration, the stirring speed was 310 rpm. The duration of each injection was 20 s, and the equilibration time between consecutive injections was 3 min. Such an interval was sufficient to equilibrate the reaction cell after every injection. Each experiment was performed at least three times. Calorimetric data analysis was carried out using Origin 5.0 software (MicroCal). • Analytical Ultracentrifugation: Sedimentation equilibrium experiments were performed at 24° C. using a Beckman Optima XL-A (Palo Alto, Calif.) analytical centrifuge at 6000, 10000, and 12000 rpm for the low-pH solutions and at 4000, 6000, and 8000 rpm for the pH 7.0 solutions. Data were collected at 280 nm. The beta-casein solutions were studied at concentrations ranging from 0.2 to 10.0 mg/mL at pH 2.6 and from 0.2 to 2 mg/mL at pH 7.0 and an ionic strength of 0.1. […] The average apparent molecular weight of the micelles at the various protein concentrations was calculated following methods well known in the art (The partial specific volume vj of the solute was taken to be 0.742 cm3/g3, and a solution density F of 1.0044 g/cm3 was measured). At beta-casein concentrations of 2 mg/mL and above under low pH conditions, the plot of the natural logarithm of the measured absorbance versus the square of the radius from the axis of rotation was not linear. To estimate Nagg, the limiting slope toward the outer edge of the sample cell was used to provide dln(c)/dr^2. The molecular weight calculated using this slope was divided by the monomer molecular weight calculated from the beta-casein amino acid sequence (24000).\n• Characterization of the beta-casein micelles by ITC: beta-casein micellar solution was titrated into lactic acid buffer (pH 2.6) placed in the ITC cell, and the heat flow was measured as a function of time (FIG. 6A). Three factors contribute to the exothermic enthalpy changes observed at the initial injections: micelle dilution, demicellization, and dilution of individual beta-casein molecules. The enthalpy changes decrease in magnitude as more protein is added and the concentration in the ITC cell increases. Eventually, the concentration in the cell exceeds the CMC and only micelle dilution contributes to the heat flow. […]"}, "[2]": {"conditions": "depending on temperature, pH, solvent composition and ionic strength (Portnaya 2006); cited from earlier work"}, "[3]": {"test": "Analytical ultracentrifugation, sedimentation equilibrium", "format": "physicochemical", "protocol": "• Cryo-TEM: Specimens were prepared in the controlled environment vitrification system (CEVS) (Bellare et al. Electron Microsc. Technique, 1988, 10; 87-111) at 24° C. and 100% relative humidity to avoid loss of volatiles. First, the solutions were incubated in the CEVS at the desired temperature for 1 h. Then, a 7 μL drop of each solution was placed on a TEM copper grid covered with a perforated carbon film (Pelco International) and blotted with filter paper to form a thin liquid film of the sample (100-200 nm thick). The thinned sample was plunged into liquid ethane at its freezing temperature (−183° C.) to form a vitrified specimen and then transferred to liquid nitrogen ([…]) for storage. The vitrified specimens were examined in a Philips CM120 transmission electron microscope operating at an accelerating voltage of 120 kV. We used an Oxford CT3500 (Oxford Instruments) cryoholder that maintained the specimens below −175° C. during sample transfer and observation. Images were recorded digitally on a cooled Gatan MultiScan 791 CCD camera using DigitalMicrograph 3.1 software (Gatan) in the low-dose imaging mode to minimize beam exposure and electron-beam radiation damage. • ITC: ITC measurements were performed with a VP-ITC calorimeter (MicroCal) at a temperature of 24° C. […] The micellar solution was injected into the reaction cell in 28 steps of 10 μL aliquots each, and the heat flow was measured. […] The average apparent molecular weight of the micelles at the various protein concentrations was calculated following methods well known in the art (The partial specific volume vj of the solute was taken to be 0.742 cm3/g3, and a solution density F of 1.0044 g/cm3 was measured). At beta-casein concentrations of 2 mg/mL and above under low pH conditions, the plot of the natural logarithm of the measured absorbance versus the square of the radius from the axis of rotation was not linear. […] The molecular weight calculated using this slope was divided by the monomer molecular weight calculated from the beta-casein amino acid sequence (24000). […]"}}, "note": "Marks after values point to notes of the source that are not given here."}
{"molecule": "B1", "values": [{"measurement": "heat of demicellization, ΔHdemic", "setting": "[1]; pH 2.6, 24 °C", "value": "~-4.28", "unit": "kcal/mol"}, {"measurement": "CMC", "setting": "[1]; pH 2.6, 24 °C, ITC", "value": 1.89, "unit": "mg/mL"}, {"measurement": "CMC", "setting": "[1]; pH 2.6, 25 °C row of table, found by ITC (footnote *)", "value": "0.19* wt %"}, {"measurement": "relative micellization cooperativity (MR)", "setting": "[1]; pH 2.6, IS 0.002, 24 °C", "value": 0.14, "unit": "mM"}, {"measurement": "CMC", "setting": "[1]; pH 2.6, ITC", "value": 0.079, "unit": "mM"}, {"measurement": "heat of demicellization, ΔHdemic", "setting": "[1]; pH 7.0 and IS of 0.1", "value": -9.687, "unit": "kcal/mol"}, {"measurement": "critical micelle concentration (CMC)", "setting": "[2]", "value": "0.05-0.2%"}, {"measurement": "aggregation number", "setting": "[3]; pH 2.6, around the CMC", "value": 3}, {"measurement": "aggregation state", "setting": "[3]; pH 2.6, concentrations lower than the CMC", "value": "monomeric"}, {"measurement": "Nagg", "setting": "[3]; pH 7.0 and ionic strength 0.1", "value": 20}]}
